The values that follow come from PMC12772324.

This series has as its target T1, HutC (Pseudomonas aeruginosa PAO1) (UniProt Q9HU78).
T1 sequence: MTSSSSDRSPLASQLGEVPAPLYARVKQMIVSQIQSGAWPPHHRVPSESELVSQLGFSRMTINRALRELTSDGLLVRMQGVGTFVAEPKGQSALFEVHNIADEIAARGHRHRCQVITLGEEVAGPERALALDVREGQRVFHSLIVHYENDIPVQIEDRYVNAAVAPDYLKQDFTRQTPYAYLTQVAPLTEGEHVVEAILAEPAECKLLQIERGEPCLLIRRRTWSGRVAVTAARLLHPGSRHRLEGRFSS
Kind of series: EMSA. The note with it: 10 mM Tris-HCl pH 7.5, 100 mM NaCl, 1 mM DTT, 3 ng/uL sheared salmon sperm DNA, 1% glycerol, 2 ng/uL probe, 20 min at room temperature; 6% native gel, 0.5x TBE. (In EMSA bound probe runs differently from free probe, usually more slowly.)

Turning to “ACGGCGGCCTGAGCCGCCGGCCAATAACAATGATCGAGGCCGTTCCCCCGGGCGCGGCCCGCAGGTTTTCCAACTGCCTTTCCCAATCGTGCATCTGGAGCGTCGAACC (double strand) [hutG -108 to -1]”, the binding result is on record as “binds”.
